Results reported in the RNAGym collection of RNA variant scans (doi:10.7554/elife.80360).

B1: CPEB3 Ribozyme (parent)
chain: GGGGGCCACAGCAGAAGCGUUCACGUCGCGGCCCCUGUCAGAUUCUGGUGAAUCUGCGAAUUCUGCUGU

Variants of: B1
Assay: self-cleavage, relative activity (ratio to wild type); higher = more cleavage; co-transcriptional
With GGGGGCCACAGCACAAGCGUUCGCGUCGCGGCCCCUGUCAGAUUCUGGUGAAUCUGCGAAUUCUGCUGU [G14C A23G] the self-cleavage was 0.365.
GGGGGCCACAGCACAAGCGUUCACGUCGCGGCCCCUGUCAGAUUCUGGUGAAUAUGCGAAUUCUGCUGU [G14C C54A] showed a self-cleavage of 0.264.
With GGGGGCCACAGCACAAGCGUUCACGUCGCGGCCCCUGUCAGAUUCUGGUGUAUCUGCGAAUUCUGCUGU [G14C A51U] the self-cleavage was 0.489.
Work on GGGGGCCACAGCACAAGCGUUCACGUCGCGGCCCCUGUCAGAUUCUGGUGAAUCUGCGAAUUGUGCUGU [G14C C63G] yielded a self-cleavage of 0.971.
In the case of GGGGGCCACAGCAAAAGCGUUCACGUCGCGGCCCCUGGCAGAUUCUGGUGAAUCUGCGAAUUCUGCUGU [G14A U38G], the self-cleavage is reported as 0.152.
GGGGGCCACAGCAAAAGCGUUCACGUCGCGGCCCCUGCCAGAUUCUGGUGAAUCUGCGAAUUCUGCUGU [G14A U38C] gave a self-cleavage of 0.501.
For GGGGGCCACAGCAAAAGCGUUCACGUCGCGGCCCCUGUCAGAUUCUGGUGAAUCUGCGAAUUCUGCUGA [G14A U69A], the self-cleavage was 0.875.
GGGGGCCACAGCAAAAGCGUUCACGUCGCGGCCCCUGUCAGAUUCUGGUGAAUCUGCGAAUUCUGCUGC [G14A U69C] gave a self-cleavage of 1.
In the case of GGGGGCCACAGCAAAAGCGUUCACGUCGCGGCCCCUGUCAGAUUCUGGUGAAUCUGCGAAUUCUGCUGG [G14A U69G], the self-cleavage is reported as 0.934.
Variant GGGGGCCACAGCACAAGCGUUCACGUCGCGGCCCCUGUCAGAUUCUGGUGAAUCUGCGAAUUCUGCUGU [G14C] has a self-cleavage of 0.689.
For GGGGGCCACAGCAAAAGCGUUCACGUCGCGGCCCCUUUCAGAUUCUGGUGAAUCUGCGAAUUCUGCUGU [G14A G37U], the self-cleavage was 0.138.
GGGGGCCACAGCAAAAGCGUUCACGUCGCGGCCCCUCUCAGAUUCUGGUGAAUCUGCGAAUUCUGCUGU [G14A G37C] showed a self-cleavage of 0.114.
Work on GGGGGCCACAGCAAAAGCGUUCACGUCGCGGCCCCUGUCAGAUUCUGGUGAAUCUGCGAAGUCUGCUGU [G14A U61G] yielded a self-cleavage of 0.414.
GGGGGCCACAGCAAAAGCGUUCACGUCGCGGCCCCUGUCAGAUUCUGGUGAAUCUGCGAACUCUGCUGU [G14A U61C] showed a self-cleavage of 0.246.
Work on GGGGGCCACAGCAAAAGCGUUCACGUCGCGGCCCCUGUCAGAUUCUGGUGAAUCUGCGAAUUUUGCUGU [G14A C63U] yielded a self-cleavage of 0.98.
Variant GGGGGCCACAGCAAAAGCGUUCACGUCGCGGCCCCUGUCAGAUUCUGGUGAAUCUGCGAAUUGUGCUGU [G14A C63G] has a self-cleavage of 0.73.
With GGGGGCCACAGCAAAAGCGUUCACGUCGCGGCCCCUGUCAGAUUCAGGUGAAUCUGCGAAUUCUGCUGU [G14A U46A] the self-cleavage was 0.85.
Work on GGGGGCCACAGCAAAAGCGUUCACGUCGCGGCCCCUGUCAGAUUCUGGUGAAUCUGCGAAUUCUACUGU [G14A G65A] yielded a self-cleavage of 0.258.
With GGGGGCCACAGCAAAAGCGUUUACGUCGCGGCCCCUGUCAGAUUCUGGUGAAUCUGCGAAUUCUGCUGU [G14A C22U] the self-cleavage was 0.17.
Variant GGGGGCCACAGCAAAAGCGUUAACGUCGCGGCCCCUGUCAGAUUCUGGUGAAUCUGCGAAUUCUGCUGU [G14A C22A] has a self-cleavage of 0.178.
Variant GGGGGCCACAGCACAAGCGUUCACGUCGCGGCCUCUGUCAGAUUCUGGUGAAUCUGCGAAUUCUGCUGU [G14C C34U] has a self-cleavage of 0.653.
In the case of GGGGGCCACAGCACAAGCGUUCACGUCGCGGUCCCUGUCAGAUUCUGGUGAAUCUGCGAAUUCUGCUGU [G14C C32U], the self-cleavage is reported as 0.716.
With GGGGGCCACAGCAAAAGCGUUCACGUCGCGGCCCCUGUCAGAUUCUGGUGAAACUGCGAAUUCUGCUGU [G14A U53A] the self-cleavage was 0.362.
Variant GGGGGCCACAGCAAAAGCGUUCACGUCGCGGCCCCUGUCAGAUUCUGGUGAAGCUGCGAAUUCUGCUGU [G14A U53G] has a self-cleavage of 0.344.
GGGGGCCACAGCAAAAGCGUUCACGUCGCGGCCCCUGUCAGAUUCUGGUGAAUGUGCGAAUUCUGCUGU [G14A C54G] showed a self-cleavage of 0.312.
In the case of GGGGGCCACAGCAAAAGCGUUCACGUCGCGGCCCCUGUCAGAUUCUGGUGAAUUUGCGAAUUCUGCUGU [G14A C54U], the self-cleavage is reported as 0.755.
Work on GGGGGCCACAGCACAAGCGUUCACGUCGCGGCCCCUGUCAGAUUCUGGUGAAUCUGGGAAUUCUGCUGU [G14C C57G] yielded a self-cleavage of 0.203.
With GGGGGCCACAGCACAAGCGUUCACGUCGCGGCCCCUGUCAGAUUCUGGUGAAUCUGCGAAUUCUGGUGU [G14C C66G] the self-cleavage was 0.447.
Variant GGGGGCCACAGCAAAAGCGUUCACGUCGCGGCCCCUGUCAGAUUCUGGUGAAUCUGCGAAUUCUGCUUU [G14A G68U] has a self-cleavage of 0.765.
Work on GGGGGCCACAGCAAAAGCGUUCACGUCGCGGCCCCUGUCAGAUUCUGGUGAAUCUGCGAAUUCUGCUAU [G14A G68A] yielded a self-cleavage of 0.866.
Variant GGGGGCCACAGCAAAAGCGUUCAGGUCGCGGCCCCUGUCAGAUUCUGGUGAAUCUGCGAAUUCUGCUGU [G14A C24G] has a self-cleavage of 0.148.
With GGGGGCCACAGCACAAGCGUUCAAGUCGCGGCCCCUGUCAGAUUCUGGUGAAUCUGCGAAUUCUGCUGU [G14C C24A] the self-cleavage was 0.136.
GGGGGCCACAGCACAAGCGUUCAGGUCGCGGCCCCUGUCAGAUUCUGGUGAAUCUGCGAAUUCUGCUGU [G14C C24G] gave a self-cleavage of 0.131.
For GGGGGCCACAGCAAAAGCGUUCACGUCGGGGCCCCUGUCAGAUUCUGGUGAAUCUGCGAAUUCUGCUGU [G14A C29G], the self-cleavage was 0.167.
Variant GGGGGCCACAGCAAAAGCGUUCACGUCGAGGCCCCUGUCAGAUUCUGGUGAAUCUGCGAAUUCUGCUGU [G14A C29A] has a self-cleavage of 0.23.
In the case of GGGGGCCACAGCACGAGCGUUCACGUCGCGGCCCCUGUCAGAUUCUGGUGAAUCUGCGAAUUCUGCUGU [G14C A15G], the self-cleavage is reported as 0.725.
Variant GGGGGCCACAGCACUAGCGUUCACGUCGCGGCCCCUGUCAGAUUCUGGUGAAUCUGCGAAUUCUGCUGU [G14C A15U] has a self-cleavage of 0.179.
In the case of GGGGGCCACAGCAAAAGCGUUCACGUCGCGGCUCCUGUCAGAUUCUGGUGAAUCUGCGAAUUCUGCUGU [G14A C33U], the self-cleavage is reported as 0.747.
Work on GGGGGCCACAGCAAAAGCGUUCACGUCGCGGCGCCUGUCAGAUUCUGGUGAAUCUGCGAAUUCUGCUGU [G14A C33G] yielded a self-cleavage of 0.414.
